From patent publication US20240148884A1 (Scripps Research, published 2024) come the findings set out here.

Holding throughout (assay): cell-based or functional assay
The target in assay [1] is T1, human GIPR (human, UniProt P48546 22-466).
T1 sequence (looked up): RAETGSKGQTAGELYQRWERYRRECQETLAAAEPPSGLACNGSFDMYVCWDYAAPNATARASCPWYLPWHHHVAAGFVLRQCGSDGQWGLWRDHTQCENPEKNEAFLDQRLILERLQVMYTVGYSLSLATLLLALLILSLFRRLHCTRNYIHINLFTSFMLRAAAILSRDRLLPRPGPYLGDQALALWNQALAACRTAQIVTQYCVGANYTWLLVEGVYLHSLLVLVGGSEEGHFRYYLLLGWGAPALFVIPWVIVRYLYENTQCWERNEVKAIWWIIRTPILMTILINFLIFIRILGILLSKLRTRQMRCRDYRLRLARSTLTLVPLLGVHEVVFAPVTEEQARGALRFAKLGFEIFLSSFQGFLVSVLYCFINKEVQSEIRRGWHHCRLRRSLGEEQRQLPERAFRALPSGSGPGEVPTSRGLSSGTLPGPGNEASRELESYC

For assay [2], the target named is T2, human GLP-1R (human, UniProt P43220 24-463).
Target sequence in this assay (P43220 24-463): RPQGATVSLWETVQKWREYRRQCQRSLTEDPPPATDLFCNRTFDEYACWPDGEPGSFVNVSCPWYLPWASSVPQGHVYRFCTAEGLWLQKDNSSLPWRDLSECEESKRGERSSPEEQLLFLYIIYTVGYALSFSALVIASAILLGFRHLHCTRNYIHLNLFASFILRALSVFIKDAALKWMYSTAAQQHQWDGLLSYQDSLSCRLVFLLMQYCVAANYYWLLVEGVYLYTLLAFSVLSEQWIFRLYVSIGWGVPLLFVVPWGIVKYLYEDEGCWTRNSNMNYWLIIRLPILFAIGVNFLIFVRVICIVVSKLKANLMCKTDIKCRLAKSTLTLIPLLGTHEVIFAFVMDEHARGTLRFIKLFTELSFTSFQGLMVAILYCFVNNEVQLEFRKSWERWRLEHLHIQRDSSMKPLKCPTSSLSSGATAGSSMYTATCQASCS
The target in assay [3] is T1, human GIPR. This is another data set of the same source.
Assay [4] deals with T1, human GIPR. This is another data set of the same source.
The target of assay [5] is T2, human GLP-1R. The source holds these as a separate data set.
Target sequence in this assay (P43220 24-463): as above
The target of assay [6] is T2, human GLP-1R. The source holds these as a separate data set.
Assay [7] addresses T1, human GIPR. The source holds these as a separate data set.
For assay [8], the target named is T2, human GLP-1R. The source holds these as a separate data set.
Target sequence in this assay (P43220 24-463): as above
Assay [9] addresses T1, human GIPR. The source holds these as a separate data set.
The next assay has as its target cynomolgous monkey GLP1R (cynomolgous monkey).
The next assay has as its target T3, mouse GLP1R (mouse, UniProt O35659 22-463, limits assumed).
T3 sequence (looked up): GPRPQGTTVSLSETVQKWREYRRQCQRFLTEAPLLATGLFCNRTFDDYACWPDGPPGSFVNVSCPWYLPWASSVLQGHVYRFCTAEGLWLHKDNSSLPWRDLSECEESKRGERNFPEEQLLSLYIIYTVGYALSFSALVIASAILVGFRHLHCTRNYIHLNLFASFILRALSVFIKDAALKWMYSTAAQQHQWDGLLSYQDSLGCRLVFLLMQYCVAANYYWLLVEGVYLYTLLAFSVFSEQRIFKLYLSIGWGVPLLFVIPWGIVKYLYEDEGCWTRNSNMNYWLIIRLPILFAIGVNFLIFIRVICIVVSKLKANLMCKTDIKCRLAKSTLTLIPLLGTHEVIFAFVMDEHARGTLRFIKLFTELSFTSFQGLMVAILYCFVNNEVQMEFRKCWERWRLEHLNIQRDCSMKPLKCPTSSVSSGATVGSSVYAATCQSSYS

A further assay deals with cynomolgous monkey GIPR (cynomolgous monkey).

Read-outs that look alike come from different tables or passages of the source. Bridge positions count the residues as written; N and C are the ends. Square brackets hold non-standard residues; d marks the D form. Ends that are not written are not given here. C20L5A staple = not defined here; L5A(S) staple = not defined here; C20L5A = not defined here; L5A = not defined here; Aib = CC(C)(N)C(=O)O

B1: mCLZ715 (peptide)
peptide: YXEGTFTSDYSIYKDKQAAXKFVNWLLAGGPSSGAPPPS
modifications: Aib at positions 2 and 20; C-terminal amide (NH2); staple K5 attached at Lys14 and Lys21
Regarding B1, the “EC50 of receptor-mediated cAMP synthesis” value in the assay with human GIPR [1] and in the assay with human GLP-1R [2] was 0.02 nM in each case.

B2: mCMC759 (C(14-21)-L5A) (peptide)
peptide: YXEGTFTSDYSIYCDKQAAXCFVNWLLAGGPSSGAPPPS
modifications: Aib at positions 2 and 20; C-terminal amide (NH2); staple L5A attached at Cys14 and Cys21
With B2, the “EC50 of receptor-mediated cAMP synthesis” value with human GIPR [3] and with human GIPR [4] was 0.03 nM throughout.

B3: mCMD307 (2050-K4) (peptide)
peptide: YXEGTFTSDYSIYKDKQAAXKFVNWLLAGGPSSGAPPPS
modifications: Aib at positions 2 and 20; C-terminal amide (NH2); staple K4 attached at Lys14 and Lys21
For the molecule B3, the “EC50 of receptor-mediated cAMP synthesis” value with human GIPR [3] came out at 0.01 nM; with human GLP-1R [5] it was 0.03 nM; with human GIPR [1], 0.02 nM; with human GLP-1R [2] it was 0.01 nM; in the assay with human GIPR [4] it was 0.01 nM; with human GLP-1R [6], 0.03 nM. In addition, the “EC50 of receptor-mediated cAMP synthesis (03/25)” value in the assay with human GIPR [7] was 0.01 nM. Also, the “EC50 of receptor-mediated cAMP synthesis (03/26)” value (“EC50 … (03/26)” below) in the assay with human GIPR [7] and in the assay with human GLP-1R [8] was 0.01 nM throughout. The “EC50 of receptor-mediated cAMP synthesis (average)” value (from here on “EC50 … (average)”) with human GIPR [7] came out at 0.02 nM; with human GLP-1R [8], 0.01 nM. Besides, the “EC50 of receptor-mediated cAMP synthesis (02/19)” value (shortened to “EC50 … (02/19)”) with human GLP-1R [8] is 0.01 nM. In the assay with human GLP-1R [8], the “EC50 of receptor-mediated cAMP synthesis (3/25)” value (“EC50 … (3/25)” for short) is 0.01 nM.

B4: mCMV266 (27I, C(14-21)-C20L5A) (peptide)
peptide: YXEGTFTSDYSIYCDKQAAXCFVNWLIAGGPSSGAPPPS
modifications: Aib at positions 2 and 20; C-terminal amide (NH2); staple C20L5A attached at Cys14 and Cys21
Consider B4, for which the “EC50 of receptor-mediated cAMP synthesis” value with human GLP-1R [5] is 0.05 nM. Also, in the assay with human GLP-1R [8], the “EC50 … (02/19)” value stood at 0.03 nM, the “EC50 … (3/25)” value came out at 0.05 nM and the “EC50 … (average)” value stood at 0.05 nM.
Consider Y[Aib]EGTFTSDYSIYLDKCAQ[Aib]AFVCWLIAQGPSSGAPPPS-NH2 (linker 17-24 via C20L5A; reading uncertain) [19Q, 21A, 27I, 29Q, C(17-24) - C20L5A], for which the “EC50 of receptor-mediated cAMP synthesis” value with human GIPR [4] was 0.02 nM.
In the case of Y[Aib]EGTFTSDYSIYLDKCAA[Aib]EFVCWLIAGGPSSGAPPPS-NH2 (linker 17-24 via L5A(S) staple; reading uncertain) [mCMZ371 (C(17-24)-L5A(S))], the “In Vitro Potency GIPR EC50 [nM], No Serum” value with human GIPR [9] was determined as 0.01 nM. In the assay with cynomolgous monkey GLP1R, the “In Vitro Potency GLP1R EC50 [nM], Cyno” value was 0.11 nM. Also, in the assay with mouse GLP1R, the “In Vitro Potency GLP1R EC50 [nM], Mouse” value was 0.09 nM.
Y[Aib]EGTFTSDYSIYLDKCAA[Aib]EFVCWLLAGGPSSGAPPPS-NH2 (linker 17-24 via L5A; reading uncertain) [C(17-24)-L5A]: the “EC50 of receptor-mediated cAMP synthesis” value with human GIPR [4] turned out to be 0.05 nM.
Regarding Y[Aib]EGTYTSDYSIYLDKCAA[Aib]EFVCWLIAGGPSSGAPPPS-NH2 (linker 17-24 via C20L5A; reading uncertain) [6Y, 27I, C(17-24)-C20L5A], the “EC50 … (02/19)” value with human GLP-1R [8] was 0.05 nM.
Turning to Y[Aib]EGTFTSDYSIYCDKQAA[Aib]CFVNWLIAGGPSSGAPPPS-NH2 (linker 14-21 via L5A; reading uncertain) [27I, C(14-21)-L5A], the “EC50 of receptor-mediated cAMP synthesis” value in the assay with human GIPR [3] worked out at 0.03 nM.
For Y[Aib]EGTFTSDYSIYCDKQAA[Aib]CFVNWLLAGGPSSGAPPPS-NH2 (linker 14-21 via C20L5A staple; reading uncertain) [C(14-21)-C20L5A], in the assay with human GIPR [3], the “EC50 of receptor-mediated cAMP synthesis” value was determined as 0.05 nM. For the same molecule, the “EC50 … (average)” value in the assay with human GIPR [7] was found to be 0.05 nM.

B5: mCMV268 (27I, C(17-24)-C20L5A) (peptide)
peptide: YXEGTFTSDYSIYLDKCAAXEFVCWLIAGGPSSGAPPPS
modifications: Aib at positions 2 and 20; C-terminal amide (NH2); staple C20L5A attached at Cys17 and Cys24
In the case of B5, in the assay with human GIPR [9], the “In Vitro Potency GIPR EC50 [nM], 10% FBS” value amounted to 0.09 nM and the “In Vitro Potency GIPR EC50 [nM], No Serum” value was found to be 0.01 nM. The “In Vitro Potency GLP1R EC50 [nM], Cyno” value with cynomolgous monkey GLP1R was 0.22 nM. Moreover, in the assay with cynomolgous monkey GIPR, the “In Vitro Potency GIPR EC50 [nM], Cyno” value is 0.16 nM. For the same molecule, the “EC50 … (02/19)” value with human GIPR [7] turned out to be 0.05 nM.
For Y[Aib]EGTFTSDYSIYLDKCAA[Aib]EFVCWLLAGGPSSGAPPPS-NH2 (linker 17-24 via C20L5A; reading uncertain) [C(17-24)-C20L5A], the “EC50 of receptor-mediated cAMP synthesis” value with human GIPR [4] was found to be 0.05 nM. In the assay with human GIPR [7], the “EC50 of receptor-mediated cAMP synthesis (03/25)” value is 0.02 nM, the “EC50 … (03/26)” value was 0.03 nM and the “EC50 … (average)” value was 0.03 nM. In the assay with human GLP-1R [8], the “EC50 … (3/25)” value is 0.1 nM, the “EC50 … (03/26)” value amounted to 0.09 nM and the “EC50 … (average)” value was 0.09 nM.
